Here are results for 7 substances from article PMC9784262.

For one data set, the system named is Nterm (position 1, -----FR----). Nature of the data set: potentiometry. Conditions: 25 °C; not stated (no added salt mentioned); none stated (unbuffered aqueous surfactant solution, N2 atmosphere, magnetic stirring); aggregated (micellar): post-micellar surfactant concentration, exact concentration not stated.
What is called pKa is the negative logarithm of the acid dissociation constant. Turning to “PANHC8 (phenylalanine-arginine octyl amide dihydrochloride) (synthetic)”, the pKa is 6.9.
The same measure, in the same setting: next, “PANHC10 (phenylalanine-arginine decyl amide dihydrochloride) (synthetic)”: 6.9; “PANHC12 (phenylalanine-arginine dodecyl amide dihydrochloride) (synthetic)”: 6.1; “PANHC14 (phenylalanine-arginine tetradecylamide dihydrochloride) (synthetic)”: 5.9.

The test system of the next data set is Nterm (position 1, -----WR----). Nature of the data set: potentiometry. Conditions: 25 °C; not stated (no added salt mentioned); none stated (unbuffered aqueous surfactant solution, N2 atmosphere, magnetic stirring); aggregated (micellar): post-micellar surfactant concentration, exact concentration not stated.
With “TANHC10 (tryptophan-arginine decyl amide dihydrochloride) (synthetic)”, the pKa was determined as 7.2.
The same measure, in the same setting: next, “TANHC12 (tryptophan-arginine dodecyl amide dihydrochloride) (synthetic)”: 7.8; “TANHC14 (tryptophan-arginine tetradecylamide dihydrochloride) (synthetic)”: 7.0.
